Molecular target: KNL1 (construct of the BLI titrations with ZWINT)
Test: BLI
Details: immobilized ligand KNL1, end of association (~500 s), parent read from panel c, read off a plot

response (analyte ZWINT^M1 15.6 nM, parent: est. 0.040) [nm]	response (analyte ZWINT^M1 31.2 nM, parent: est. 0.056) [nm]	response (analyte ZWINT^M1 62.5 nM, parent: est. 0.071) [nm]	response (analyte ZWINT^M1 125 nM, parent: est. 0.10) [nm]	response (analyte ZWINT^M1 250 nM, parent: est. 0.14) [nm]	response (analyte ZWINT^M1 500 nM, parent: est. 0.19) [nm]	response (analyte ZWINT^M1 1,000 nM, parent: est. 0.22) [nm]	response (analyte ZWINT^M2 500 nM, parent: est. 0.19) [nm]	response (analyte ZWINT^M2 1000 nM, parent: est. 0.22) [nm]	Substance
0.025	0.052	0.071	0.1	0.14	0.2	0.19			ZWINT (from UniProt O95229) C54A; L67A; I110A; L114A
							0.055	0.11	ZWINT (from UniProt O95229) C54A; S85R; I110A; L114A

From publication PMC11189300
